Assay results reported in patent publication US20080159996.

Key:
Test in all cases: cell_activity
[1] = test system: ZFN 8196z-FokI wt (ZFN215 and ZFN201 pair member) (synthetic)
[2] = test system: ZFN 8196z-FokI E490K/I538K (ZFN224 pair member) (synthetic)
[3] = test system: ZFN 8266-FokI Q486E/I499L (ZFN224 pair member) (synthetic)
[4] = test system: ZFN 8267-FokI wt (ZFN215 pair member) (synthetic); details: pair ZFN215 with 8196z, CD4+ T-cells, MOI 100, Cel-1 assay; 31.2% in PBMCs
[5] = test system: ZFN 8266-FokI wt (ZFN201 pair member) (synthetic); details: pair ZFN201 with 8196z, PM1 cells, plasmid electroporation
[6] = pair ZFN224, CD4 T cells, conditions giving 35.6% CCR5 modification, Surveyor nuclease

AAACTGCAAAAG (double strand) [CCR5 168 half-site]
activity (% CCR5 alleles modified) ([1]; pair ZFN201 with 8266, PM1 cells, plasmid electroporation): 2.4
activity (% CCR5 alleles modified) ([1]; pair ZFN215 with 8267, CD4+ T-cells, MOI 100, Cel-1 assay, 31.2% in PBMCs): 32.3
activity (% CCR5 alleles modified) ([2]; pair ZFN224, CD4+ T-cells, MOI 100, Cel-1 assay, 48.4% in Example 4): 14.9

CCR2 off-target site
activity (% CCR2 alleles modified) [3, 6]: 4.1
activity (% CCR2 alleles modified) [2, 6]: 4.1

GATGAGGATGAC (double strand) [CCR5 r162 half-site]
activity (% CCR5 alleles modified) ([3]; pair ZFN224 with 8196z, CD4+ T-cells, MOI 100, Cel-1, Examples 14 and 17 state 8266 in ZFN224 but Example 1 states 8267): 14.9
activity (% CCR5 alleles modified) [4]: 32.3
activity (% CCR5 alleles modified) [5]: 2.4
